Measured values: US20220153819A1 (Regeneron, published 2022)
Values joined by “and” are separate entries in the source; they are usually repeats but may differ in a detail not shown here. Equal entries are not always repeated. Where two headings read alike, the source gives them in different places.

Experiments:
[1] = target: T1, human complement component 1q (C1q) (human, UniProt P02745 23-245; P02746 28-253; P02747 29-245)
[2] = target: T2, IsdB.6×(His) (Staphylococcus aureus, UniProt A6QG30 41-613); experiment: SPR (Biacore 8k), 37C; IsdB-6xHis captured via anti-His, bsAb injected
[3] = target: T3, biotinylated human C1q (human, UniProt P02745 23-245; P02746 28-253; P02747 29-245); experiment: SPR (Biacore), 37C; biotinylated hC1q captured at low density, bsAb injected
T3 construct: also called Bt hC1q; bt-hC1q

[4] = target: T2, IsdB.6×(His); experiment: SPR (Biacore 8k), 25C; IsdB-6xHis captured via anti-His, bsAb injected
[5] = target: T2, IsdB.6×(His); experiment: SPR (Biacore T200), 25C; bsAb captured, IsdB-6xHis injected
[6] = target: T2, IsdB.6×(His); experiment: SPR (Biacore T200), 37C; bsAb captured, IsdB-6xHis injected
[7] = target: T4, hemagglutinin (HA) on A/Puerto Rico/08/1934 (H1N1)-infected MDCK cells (Influenza A virus A/Puerto Rico/08/1934 …, UniProt P03452 18-565); experiment: cell-based or functional assay
[8] = target: T3, biotinylated human C1q
[9] = target: T5, IsdB on the surface of S. aureus Newman Δspa (Staphylococcus aureus, UniProt A6QG30 41-613); experiment: ELISA, plate coated with S. aureus Newman Δspa, luminescence
T5 construct: whole, on cells; also called iron-regulated surface determinant protein B

[10] = target: T1, human complement component 1q (C1q); remark: listed apart in the source
[11] = target: mouse C1q (mouse, UniProt P98086 23-245; P14106 26-253; Q02105 30-246); experiment: not described
[12] = target: T4, hemagglutinin (HA) on A/Puerto …; experiment: cell ELISA on fixed A/Puerto Rico/08/1934 (H1N1)-infected MDCK cells
[13] = target: T1, human complement component 1q (C1q); experiment: SPR (Biacore T200), 25C; bsAb captured via anti-human F(ab')2, hC1q injected
[14] = target: T1, human complement component 1q (C1q); experiment: SPR (Biacore T200), 37C; bsAb captured via anti-human F(ab')2, hC1q injected
[15] = target: T2, IsdB.6×(His); experiment: SPR (Biacore), 37C; IsdB.6xHis captured, bsAb injected
[16] = target: T3, biotinylated human C1q; remark: listed apart in the source
[17] = target: T1, human complement component 1q (C1q); experiment: cell-based or functional assay
[18] = target: T2, IsdB.6×(His); experiment: SPR (Biacore T200), 37C; antibody captured, IsdB.6xHis injected
[19] = target: T3, biotinylated human C1q; remark: listed apart in the source
[20] = target: T3, biotinylated human C1q; remark: listed apart in the source
[21] = target: T1, human complement component 1q (C1q)
[22] = target: T6, hGITR.mmh (human)
T6 chain: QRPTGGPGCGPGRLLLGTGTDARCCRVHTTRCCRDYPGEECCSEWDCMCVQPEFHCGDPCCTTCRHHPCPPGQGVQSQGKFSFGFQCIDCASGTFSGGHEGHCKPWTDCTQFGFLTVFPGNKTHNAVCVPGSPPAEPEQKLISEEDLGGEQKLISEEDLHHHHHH

[23] = target: T1, human complement component 1q (C1q); remark: listed apart in the source
[24] = target: T3, biotinylated human C1q
[25] = target: T1, human complement component 1q (C1q); remark: listed apart in the source
[26] = target: T7, human GITR on Jurkat/hGITR/hCD20 cells (human, UniProt Q9Y5U5 26-241)
T7 sequence (looked up): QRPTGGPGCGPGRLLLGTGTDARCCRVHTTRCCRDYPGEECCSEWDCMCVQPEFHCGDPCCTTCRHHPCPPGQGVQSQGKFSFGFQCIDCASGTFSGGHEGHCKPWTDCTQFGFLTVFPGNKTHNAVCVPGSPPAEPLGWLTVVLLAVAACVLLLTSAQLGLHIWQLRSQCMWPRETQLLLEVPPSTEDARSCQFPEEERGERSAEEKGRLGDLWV

[27] = target: T6, hGITR.mmh
[28] = target: T6, hGITR.mmh
[29] = target: T3, biotinylated human C1q; remark: listed apart in the source
[30] = target: T8, Protein A of S. aureus (ELISA on S. aureus Newman Δspa as printed) (Staphylococcus aureus); experiment: ELISA, plate coated with S. aureus Newman Δspa, luminescence
T8 construct: whole, on cells

T1 sequence (P02745 23-245, chain 1 of 3): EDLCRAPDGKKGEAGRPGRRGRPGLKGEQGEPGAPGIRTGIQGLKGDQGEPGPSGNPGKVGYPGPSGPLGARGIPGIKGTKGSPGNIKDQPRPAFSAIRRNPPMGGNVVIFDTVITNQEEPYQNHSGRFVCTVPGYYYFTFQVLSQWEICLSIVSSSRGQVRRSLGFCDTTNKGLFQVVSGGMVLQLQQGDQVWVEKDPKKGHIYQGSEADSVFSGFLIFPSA
T1 sequence (P02746 28-253, chain 2 of 3): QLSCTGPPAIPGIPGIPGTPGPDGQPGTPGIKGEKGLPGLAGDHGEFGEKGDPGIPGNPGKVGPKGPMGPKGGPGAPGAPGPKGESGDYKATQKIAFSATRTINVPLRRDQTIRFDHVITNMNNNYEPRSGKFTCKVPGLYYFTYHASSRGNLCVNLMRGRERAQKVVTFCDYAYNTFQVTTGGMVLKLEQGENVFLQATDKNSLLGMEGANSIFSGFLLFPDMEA
T1 sequence (P02747 29-245, chain 3 of 3): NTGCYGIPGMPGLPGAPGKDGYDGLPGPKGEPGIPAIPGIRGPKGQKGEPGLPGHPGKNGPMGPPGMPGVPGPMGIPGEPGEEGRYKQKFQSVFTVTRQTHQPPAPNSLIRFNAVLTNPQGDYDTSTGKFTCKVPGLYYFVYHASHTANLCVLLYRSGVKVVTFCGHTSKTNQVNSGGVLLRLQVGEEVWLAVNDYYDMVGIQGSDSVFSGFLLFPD
T3 sequence (P02745 23-245, chain 1 of 3): as the sequence (P02745 23-245, chain 1 of 3) above
T3 sequence (P02746 28-253, chain 2 of 3): as the sequence (P02746 28-253, chain 2 of 3) above
T3 sequence (P02747 29-245, chain 3 of 3): as the sequence (P02747 29-245, chain 3 of 3) above
mouse C1q, sequence (P98086 23-245 limits assumed, chain 1 of 3): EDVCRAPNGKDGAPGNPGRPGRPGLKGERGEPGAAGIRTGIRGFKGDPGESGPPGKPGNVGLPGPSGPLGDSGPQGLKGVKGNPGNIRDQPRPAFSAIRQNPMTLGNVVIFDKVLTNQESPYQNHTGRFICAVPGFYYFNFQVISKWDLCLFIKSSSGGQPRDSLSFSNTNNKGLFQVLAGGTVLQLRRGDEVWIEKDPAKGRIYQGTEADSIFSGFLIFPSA
mouse C1q, sequence (P14106 26-253 limits assumed, chain 2 of 3): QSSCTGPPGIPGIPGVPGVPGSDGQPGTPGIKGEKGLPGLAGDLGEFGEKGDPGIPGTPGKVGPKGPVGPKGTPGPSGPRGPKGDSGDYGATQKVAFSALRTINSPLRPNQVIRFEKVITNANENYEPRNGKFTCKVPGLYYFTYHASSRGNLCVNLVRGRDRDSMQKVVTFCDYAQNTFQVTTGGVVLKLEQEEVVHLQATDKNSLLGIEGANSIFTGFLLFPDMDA
mouse C1q, sequence (Q02105 30-246 limits assumed, chain 3 of 3): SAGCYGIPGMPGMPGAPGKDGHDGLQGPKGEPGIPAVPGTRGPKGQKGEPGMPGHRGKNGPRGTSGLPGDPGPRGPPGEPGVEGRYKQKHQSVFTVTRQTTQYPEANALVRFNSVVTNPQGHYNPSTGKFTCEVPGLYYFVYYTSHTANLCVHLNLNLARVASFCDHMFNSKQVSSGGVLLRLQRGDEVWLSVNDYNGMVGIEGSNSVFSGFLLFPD

B1: REGN5066, anti-IsdB x anti-C1q bispecific antibody (bispecific antibody, V domains shown)
VH 1: EVQLVESGGGLVQPGRSLRLSCTTSGFTFDDYAMHWVRQVPGQGLEWVAGLSWNSDTIGYADSVKGRFTISRDNAKNSLYLQMKSLKAEDTALYYCTKDFYHSLNNWNYYYFDYWGQGTLVTVSS
VH 2: EVQLVESGGGVVQPGGSLRLSCAASGFSLDDYAMHWVRQTPGKGLEWVSLISGDGSRTSYADSVKGRFTISRDNSKNSLYLKMNSLRTEDTALYYCTKDPHNSNWFDPWGQGTLVTVSS
VL: not shown
notes: also called bsC1q × IsdB; bs hC1q × IsdB
Kd [1]: 1.56 nM
T1/2 [1]: 2.3 min
koff [1]: 0.00502 s⁻¹
kon [1]: 3.22e+06 M⁻¹ s⁻¹
Kd [2]: 7.52 nM
koff [2]: 0.00657 s⁻¹
kon [2]: 874000 M⁻¹ s⁻¹
t½ [2]: 1.8 min
Kd [3]: 3670 nM
T1/2 [3]: 0.12 min
koff [3]: 0.0964 s⁻¹
kon [3]: 26200 M⁻¹ s⁻¹
Kd [4]: 2.3 nM
koff [4]: 0.00105 s⁻¹
kon [4]: 457000 M⁻¹ s⁻¹
t1/2 [4]: 11 min
Kd [5]: 2.36 nM
koff [5]: 0.00027 s⁻¹
kon [5]: 115000 M⁻¹ s⁻¹
t1/2 [5]: 42.8 min
Kd [6]: 3.43 nM
koff [6]: 0.000557 s⁻¹
kon [6]: 163000 M⁻¹ s⁻¹
t1/2 [6]: 20.7 min
CDC EC50 (H1N1-infected MDCK cells) [7]: > 889 nM
Maximum percent specific lysis (CDC of H1N1-infected MDCK cells) [7]: -6.15%
Kd [8]: 402 nM
koff [8]: 0.0366 s⁻¹
kon [8]: 91100 M⁻¹ s⁻¹
t1/2 [8]: 0.32 min
EC50 [9]: 0.19 nM
Kd [10]: 3.23 nM
T1/2 [10]: 3.5 min
koff [10]: 0.00334 s⁻¹
kon [10]: 1.03e+06 M⁻¹ s⁻¹
binding result [11]: no binding
Maximum binding (RLUs) [12]: 2500 RLU
Kd [13]: 0.842 nM
koff [13]: 0.00211 s⁻¹
kon [13]: 2.51e+06 M⁻¹ s⁻¹
t1/2 [13]: 5.5 min
koff [14]: 0.00502 s⁻¹
kon [14]: 3.22e+06 M⁻¹ s⁻¹
t1/2 [14]: 2.3 min
Kd [15]: 7.52 nM
T1/2 [15]: 1.8 min
koff [15]: 0.00657 s⁻¹
kon [15]: 874000 M⁻¹ s⁻¹
Kd [16]: 666 nM
koff [16]: 0.0782 s⁻¹
kon [16]: 117000 M⁻¹ s⁻¹
t1/2 [16]: 0.15 min
C1q deposition on S. aureus (plate-based, anti-C1q detection), EC50 [17]: 0.127 nM
Kd [18]: 3.43 nM
T1/2 [18]: 21 min
koff [18]: 0.000557 s⁻¹
kon [18]: 163000 M⁻¹ s⁻¹

B2: REGN5067, anti-IsdB x anti-C1q bispecific antibody (bispecific antibody, V domains shown)
VH 1: B1 VH 1
VH 2: EVQLVQSGAEVKKPGESLKIFCKGSGYSFINDWIGWVRQMPGKGLEWMGLIFPGDSDTRYSPVFQGHVTISADQSIDTAYLQWNSLKASDTAIYYCAVLRYWHFAIWGRGTLVTVSS
VL: not shown
Kd [4]: 3.01 nM
koff [4]: 0.000989 s⁻¹
kon [4]: 328000 M⁻¹ s⁻¹
t1/2 [4]: 11.7 min
Kd [5]: 1.7 nM
koff [5]: 0.000204 s⁻¹
kon [5]: 120000 M⁻¹ s⁻¹
t1/2 [5]: 56.6 min
Kd [6]: 3.33 nM
koff [6]: 0.00052 s⁻¹
kon [6]: 156000 M⁻¹ s⁻¹
t1/2 [6]: 22.2 min
Kd [19]: 3770 nM
koff [8]: 0.365 s⁻¹
kon [8]: 168000 M⁻¹ s⁻¹
t1/2 [8]: 0.03 min
Kd [20]: 2180 nM
Kd [21]: 2.05 nM
koff [13]: 0.00435 s⁻¹
kon [13]: 5.78e+06 M⁻¹ s⁻¹
t1/2 [13]: 2.7 min
koff [14]: 0.0134 s⁻¹
kon [14]: 6.52e+06 M⁻¹ s⁻¹
t1/2 [14]: 0.9 min
koff [16]: 0.844 s⁻¹
kon [16]: 224000 M⁻¹ s⁻¹
t1/2 [16]: 0.01 min

B3: REGN6546, anti-GITR x anti-C1q bispecific antibody (bispecific antibody, V domains shown)
VH 1: QVQLQESGPGLVKPSETLSLTCIVSGGSISGYFWNWIRQPPGKGLEWIGYIYYSGTTIYNPSLKSRFTISLDTSKNQFSLKLTSVTAADTAVYYCARESYNPSPRYFDHWGQGTLVTVSS
VH 2: B2 VH 2
VL: not shown
Kd [22]: 7.52 nM and 20.9 nM
kon [22]: 453000 M⁻¹ s⁻¹ and 543000 M⁻¹ s⁻¹
Kd [23]: 4.63 nM
koff [23]: 0.0227 s⁻¹
kon [23]: 4.9e+06 M⁻¹ s⁻¹
Kd [24]: 1880 nM
koff [24]: 0.413 s⁻¹
kon [24]: 220000 M⁻¹ s⁻¹
Kd [25]: 0.753 nM
koff [25]: 0.00409 s⁻¹
kon [25]: 5.43e+06 M⁻¹ s⁻¹
EC50 [26]: 23.5 nM
Kd [27]: 16 nM
koff [27]: 0.019 s⁻¹
kon [27]: 1.19e+06 M⁻¹ s⁻¹
Kd [28]: 4.61 nM
koff [28]: 0.0031 s⁻¹
kon [28]: 673000 M⁻¹ s⁻¹
Kd [29]: 8540 nM
koff [29]: 0.687 s⁻¹
kon [29]: 80500 M⁻¹ s⁻¹

B4: REGN5551, anti-Protein A x anti-C1q bispecific antibody (bispecific antibody, V domains shown)
VH 1: EVQLVESGGGLVQPGGSLRLSCAASGFTFTSYDMHWVRQATGKGLEWVSNIDPAGNTFYPGSVKGRFTISRENAKKSLYLQMNSLRAGDTAVYYCARNLGNWGYDHWGQGTLVTVSS
VH 2: B1 VH 2
VL: not shown
notes: also called bsC1q × Protein A; bs hC1q × protein A
Kd [1]: 1.36 nM
koff [1]: 0.00488 s⁻¹
kon [1]: 3.06e+06 M⁻¹ s⁻¹
EC50 [30]: 0.148 nM
